Literature values as cited in publication PMC5979509.

Molecular target: Neuropilin-1 (Homo sapiens) (UniProt O14786)
Experiment: radioligand binding

UniProt O14786, sequence (O14786 22-923): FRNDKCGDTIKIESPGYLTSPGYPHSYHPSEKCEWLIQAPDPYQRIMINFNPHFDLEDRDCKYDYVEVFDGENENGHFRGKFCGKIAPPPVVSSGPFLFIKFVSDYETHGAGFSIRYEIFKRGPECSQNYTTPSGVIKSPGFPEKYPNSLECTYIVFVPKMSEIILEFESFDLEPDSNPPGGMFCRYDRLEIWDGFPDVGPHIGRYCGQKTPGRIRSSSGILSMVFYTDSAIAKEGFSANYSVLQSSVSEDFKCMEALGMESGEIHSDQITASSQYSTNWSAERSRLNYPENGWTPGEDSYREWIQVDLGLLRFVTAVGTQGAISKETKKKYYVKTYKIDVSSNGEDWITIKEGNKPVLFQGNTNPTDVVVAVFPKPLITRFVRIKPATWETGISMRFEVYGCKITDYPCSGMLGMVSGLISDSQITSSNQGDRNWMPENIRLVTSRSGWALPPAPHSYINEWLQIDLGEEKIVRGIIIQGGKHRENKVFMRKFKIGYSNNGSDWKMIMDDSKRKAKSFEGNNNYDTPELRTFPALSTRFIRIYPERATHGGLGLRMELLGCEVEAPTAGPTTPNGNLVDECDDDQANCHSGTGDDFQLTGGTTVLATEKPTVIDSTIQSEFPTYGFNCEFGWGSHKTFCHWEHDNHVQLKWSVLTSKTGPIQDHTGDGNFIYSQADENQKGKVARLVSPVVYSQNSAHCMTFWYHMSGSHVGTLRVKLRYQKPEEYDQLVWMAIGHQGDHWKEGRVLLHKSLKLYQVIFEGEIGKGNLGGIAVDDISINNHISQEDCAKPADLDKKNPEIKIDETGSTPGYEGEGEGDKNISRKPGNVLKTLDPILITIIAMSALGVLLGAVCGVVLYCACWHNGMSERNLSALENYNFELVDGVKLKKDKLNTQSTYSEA

Kd: < 3 nM
Substance: VEGF165a (from UniProt P15692)
